Source: patent US20220204580A1 (AstraZeneca / MedImmune, published 2022)
Numbered stars: 1 amine (or outer) side, 2 acyl side, 3 side chain; on linkers, the order of the positions; unused ones are H or OH. Bridge positions count the residues as written; N and C are the ends. Square brackets hold non-standard residues; d marks the D form. Side chains are listed from the residue outwards. Ends that are not written are not given here. * marks the point of attachment. C18 diacid = O=C(O)CCCCCCCCCCCCCCCCC(=O)*; γGlu = O=C(O)[C@H](CCC(=O)[*:2])N[*:1]; αMeF = C[C@](N)(Cc1ccccc1)C(=O)O; Aib = CC(C)(N)C(=O)O

T1: human amylin receptor (calcitonin receptor co-expressed with receptor activity modifying protein, RAMP3) (human, UniProt P30988 25-474; O60896 24-148)
T1 sequence (looked up) 1: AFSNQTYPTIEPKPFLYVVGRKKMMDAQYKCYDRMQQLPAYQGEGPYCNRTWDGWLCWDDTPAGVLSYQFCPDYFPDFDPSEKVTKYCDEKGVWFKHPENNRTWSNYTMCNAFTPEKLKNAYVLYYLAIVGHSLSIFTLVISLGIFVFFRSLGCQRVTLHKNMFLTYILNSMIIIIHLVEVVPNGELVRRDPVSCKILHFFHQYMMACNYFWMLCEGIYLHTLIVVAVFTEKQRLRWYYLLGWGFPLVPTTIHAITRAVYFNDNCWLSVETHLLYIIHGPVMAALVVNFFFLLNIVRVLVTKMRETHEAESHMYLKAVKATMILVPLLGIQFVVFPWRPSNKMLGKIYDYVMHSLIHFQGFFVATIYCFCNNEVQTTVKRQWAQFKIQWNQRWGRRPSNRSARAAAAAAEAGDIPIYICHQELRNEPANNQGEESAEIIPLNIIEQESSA
T1 sequence (looked up) 2: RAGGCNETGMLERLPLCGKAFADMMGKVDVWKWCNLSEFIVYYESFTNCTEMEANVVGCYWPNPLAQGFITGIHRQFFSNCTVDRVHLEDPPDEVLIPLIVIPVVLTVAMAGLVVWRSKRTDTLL

T2: human calcitonin receptor (human, UniProt P30988 25-474)
T2 sequence (looked up): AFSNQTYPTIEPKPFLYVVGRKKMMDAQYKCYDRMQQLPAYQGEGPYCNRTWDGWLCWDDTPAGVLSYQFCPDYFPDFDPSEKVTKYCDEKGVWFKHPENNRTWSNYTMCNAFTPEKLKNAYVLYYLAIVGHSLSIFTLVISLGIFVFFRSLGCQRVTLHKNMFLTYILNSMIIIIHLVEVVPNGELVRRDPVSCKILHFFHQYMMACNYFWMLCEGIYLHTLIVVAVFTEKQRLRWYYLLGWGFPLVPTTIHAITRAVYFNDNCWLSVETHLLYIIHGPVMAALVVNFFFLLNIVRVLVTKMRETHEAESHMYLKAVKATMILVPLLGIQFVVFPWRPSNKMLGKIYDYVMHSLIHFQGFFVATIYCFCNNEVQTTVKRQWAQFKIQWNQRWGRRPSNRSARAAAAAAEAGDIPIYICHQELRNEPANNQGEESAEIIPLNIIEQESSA


Columns and labels:
[1] = molecular target: T1, human amylin receptor (calcitonin …); test: cell-based or functional assay
[2] = molecular target: T2, human calcitonin receptor; test: cell-based or functional assay

Row | Binder | EC50 (cAMP production) [1] | Ratio (EC50 hCTR / EC50 hAMYR3) [1] | EC50 (cAMP production) [2]
1 | K([γGlu-C18 diacid])CNTATCATQRLANFLRHSSNN[αMeF]GPILPPTEVGSNTY-NH2 (disulfide 2-7; N-terminus assumed; SMILES CC[C@H](C)[C@H](NC(=O)[C@@H]1CCCN1C(=O)CNC(=O)[C@](C)(Cc1ccccc1)NC(=O)[C@H](CC(N)=O)NC(=O)[C@H](CC(N)=O)NC(=O)[C@H](CO)NC(=O)[C@H](CO)NC(=O)[C@H](Cc1c[nH]cn1)NC(=O)[C@H](CCCNC(=N)N)NC(=O)[C@H](CC(C)C)NC(=O)[C@H](Cc1ccccc1)NC(=O)[C@H](CC(N)=O)NC(=O)[C@H](C)NC(=O)[C@H](CC(C)C)NC(=O)[C@H](CCCNC(=N)N)NC(=O)[C@H](CCC(N)=O)NC(=O)[C@@H](NC(=O)[C@H](C)NC(=O)[C@@H]1CSSC[C@H](NC(=O)[C@@H](N)CCCCNC(=O)CC[C@H](NC(=O)CCCCCCCCCCCCCCCCC(=O)O)C(=O)O)C(=O)N[C@@H](CC(N)=O)C(=O)N[C@@H]([C@@H](C)O)C(=O)N[C@@H](C)C(=O)N[C@@H]([C@@H](C)O)C(=O)N1)[C@@H](C)O)C(=O)N[C@@H](CC(C)C)C(=O)N1CCC[C@H]1C(=O)N1CCC[C@H]1C(=O)N[C@H](C(=O)N[C@@H](CCC(=O)O)C(=O)N[C@H](C(=O)NCC(=O)N[C@@H](CO)C(=O)N[C@@H](CC(N)=O)C(=O)N[C@H](C(=O)N[C@@H](Cc1ccc(O)cc1)C(N)=O)[C@@H](C)O)C(C)C)[C@@H](C)O) [Peptide 16 (SEQ ID NO: 16)] | 0.221 nM | 9 | 2.02 nM
2 | K([γGlu-C18 diacid])KCNTATCATQRLANFL[Aib]HSSNNFGPILPPTNVGHNTY-NH2 (disulfide 3-8; N-terminus assumed; SMILES CC[C@H](C)[C@H](NC(=O)[C@@H]1CCCN1C(=O)CNC(=O)[C@H](Cc1ccccc1)NC(=O)[C@H](CC(N)=O)NC(=O)[C@H](CC(N)=O)NC(=O)[C@H](CO)NC(=O)[C@H](CO)NC(=O)[C@H](Cc1c[nH]cn1)NC(=O)C(C)(C)NC(=O)[C@H](CC(C)C)NC(=O)[C@H](Cc1ccccc1)NC(=O)[C@H](CC(N)=O)NC(=O)[C@H](C)NC(=O)[C@H](CC(C)C)NC(=O)[C@H](CCCNC(=N)N)NC(=O)[C@H](CCC(N)=O)NC(=O)[C@@H](NC(=O)[C@H](C)NC(=O)[C@@H]1CSSC[C@H](NC(=O)[C@H](CCCCN)NC(=O)[C@@H](N)CCCCNC(=O)CC[C@H](NC(=O)CCCCCCCCCCCCCCCCC(=O)O)C(=O)O)C(=O)N[C@@H](CC(N)=O)C(=O)N[C@@H]([C@@H](C)O)C(=O)N[C@@H](C)C(=O)N[C@@H]([C@@H](C)O)C(=O)N1)[C@@H](C)O)C(=O)N[C@@H](CC(C)C)C(=O)N1CCC[C@H]1C(=O)N1CCC[C@H]1C(=O)N[C@H](C(=O)N[C@@H](CC(N)=O)C(=O)N[C@H](C(=O)NCC(=O)N[C@@H](Cc1c[nH]cn1)C(=O)N[C@@H](CC(N)=O)C(=O)N[C@H](C(=O)N[C@@H](Cc1ccc(O)cc1)C(N)=O)[C@@H](C)O)C(C)C)[C@@H](C)O) [Peptide 145 (SEQ ID NO: 145)] | 0.417 nM | 4.5 | 1.88 nM
3 | K([γGlu-C18 diacid])CNTATCATQRLAHFL[Aib]HSSNNFGPILPPTNVGSNTY-NH2 (disulfide 2-7; N-terminus assumed; SMILES CC[C@H](C)[C@H](NC(=O)[C@@H]1CCCN1C(=O)CNC(=O)[C@H](Cc1ccccc1)NC(=O)[C@H](CC(N)=O)NC(=O)[C@H](CC(N)=O)NC(=O)[C@H](CO)NC(=O)[C@H](CO)NC(=O)[C@H](Cc1c[nH]cn1)NC(=O)C(C)(C)NC(=O)[C@H](CC(C)C)NC(=O)[C@H](Cc1ccccc1)NC(=O)[C@H](Cc1c[nH]cn1)NC(=O)[C@H](C)NC(=O)[C@H](CC(C)C)NC(=O)[C@H](CCCNC(=N)N)NC(=O)[C@H](CCC(N)=O)NC(=O)[C@@H](NC(=O)[C@H](C)NC(=O)[C@@H]1CSSC[C@H](NC(=O)[C@@H](N)CCCCNC(=O)CC[C@H](NC(=O)CCCCCCCCCCCCCCCCC(=O)O)C(=O)O)C(=O)N[C@@H](CC(N)=O)C(=O)N[C@@H]([C@@H](C)O)C(=O)N[C@@H](C)C(=O)N[C@@H]([C@@H](C)O)C(=O)N1)[C@@H](C)O)C(=O)N[C@@H](CC(C)C)C(=O)N1CCC[C@H]1C(=O)N1CCC[C@H]1C(=O)N[C@H](C(=O)N[C@@H](CC(N)=O)C(=O)N[C@H](C(=O)NCC(=O)N[C@@H](CO)C(=O)N[C@@H](CC(N)=O)C(=O)N[C@H](C(=O)N[C@@H](Cc1ccc(O)cc1)C(N)=O)[C@@H](C)O)C(C)C)[C@@H](C)O) [Peptide 144 (SEQ ID NO: 144)] | 0.138 nM | 5.3 | 0.725 nM
4 | K([γGlu-C18 diacid])KCNTATCATQRLANFL[Aib]HSSNNFGPILPPTHVGSETY-NH2 (disulfide 3-8; N-terminus assumed; SMILES CC[C@H](C)[C@H](NC(=O)[C@@H]1CCCN1C(=O)CNC(=O)[C@H](Cc1ccccc1)NC(=O)[C@H](CC(N)=O)NC(=O)[C@H](CC(N)=O)NC(=O)[C@H](CO)NC(=O)[C@H](CO)NC(=O)[C@H](Cc1c[nH]cn1)NC(=O)C(C)(C)NC(=O)[C@H](CC(C)C)NC(=O)[C@H](Cc1ccccc1)NC(=O)[C@H](CC(N)=O)NC(=O)[C@H](C)NC(=O)[C@H](CC(C)C)NC(=O)[C@H](CCCNC(=N)N)NC(=O)[C@H](CCC(N)=O)NC(=O)[C@@H](NC(=O)[C@H](C)NC(=O)[C@@H]1CSSC[C@H](NC(=O)[C@H](CCCCN)NC(=O)[C@@H](N)CCCCNC(=O)CC[C@H](NC(=O)CCCCCCCCCCCCCCCCC(=O)O)C(=O)O)C(=O)N[C@@H](CC(N)=O)C(=O)N[C@@H]([C@@H](C)O)C(=O)N[C@@H](C)C(=O)N[C@@H]([C@@H](C)O)C(=O)N1)[C@@H](C)O)C(=O)N[C@@H](CC(C)C)C(=O)N1CCC[C@H]1C(=O)N1CCC[C@H]1C(=O)N[C@H](C(=O)N[C@@H](Cc1c[nH]cn1)C(=O)N[C@H](C(=O)NCC(=O)N[C@@H](CO)C(=O)N[C@@H](CCC(=O)O)C(=O)N[C@H](C(=O)N[C@@H](Cc1ccc(O)cc1)C(N)=O)[C@@H](C)O)C(C)C)[C@@H](C)O) [Peptide 146 (SEQ ID NO: 146)] | 2.53 nM | 1.9 | 4.87 nM

Now from value to binder:

Row | EC50 (cAMP production) [1] | Ratio (EC50 hCTR / EC50 hAMYR3) [1] | EC50 (cAMP production) [2] | Binder
5 | 0.802 nM | 1.9 | 1.51 nM | K([γGlu-C18 diacid])KCNTATCATQRLANFL[Aib]HSSNHFGPILPPTNVGSETY-NH2 (disulfide 3-8; N-terminus assumed; SMILES CC[C@H](C)[C@H](NC(=O)[C@@H]1CCCN1C(=O)CNC(=O)[C@H](Cc1ccccc1)NC(=O)[C@H](Cc1c[nH]cn1)NC(=O)[C@H](CC(N)=O)NC(=O)[C@H](CO)NC(=O)[C@H](CO)NC(=O)[C@H](Cc1c[nH]cn1)NC(=O)C(C)(C)NC(=O)[C@H](CC(C)C)NC(=O)[C@H](Cc1ccccc1)NC(=O)[C@H](CC(N)=O)NC(=O)[C@H](C)NC(=O)[C@H](CC(C)C)NC(=O)[C@H](CCCNC(=N)N)NC(=O)[C@H](CCC(N)=O)NC(=O)[C@@H](NC(=O)[C@H](C)NC(=O)[C@@H]1CSSC[C@H](NC(=O)[C@H](CCCCN)NC(=O)[C@@H](N)CCCCNC(=O)CC[C@H](NC(=O)CCCCCCCCCCCCCCCCC(=O)O)C(=O)O)C(=O)N[C@@H](CC(N)=O)C(=O)N[C@@H]([C@@H](C)O)C(=O)N[C@@H](C)C(=O)N[C@@H]([C@@H](C)O)C(=O)N1)[C@@H](C)O)C(=O)N[C@@H](CC(C)C)C(=O)N1CCC[C@H]1C(=O)N1CCC[C@H]1C(=O)N[C@H](C(=O)N[C@@H](CC(N)=O)C(=O)N[C@H](C(=O)NCC(=O)N[C@@H](CO)C(=O)N[C@@H](CCC(=O)O)C(=O)N[C@H](C(=O)N[C@@H](Cc1ccc(O)cc1)C(N)=O)[C@@H](C)O)C(C)C)[C@@H](C)O) [Peptide 147 (SEQ ID NO: 147)]
6 | 0.191 nM | 3.8 | 0.728 nM | K([γGlu-C18 diacid])KCNTATCATQRLANFL[Aib]HSSNNFGPILPPTNVGPNTY-NH2 (disulfide 3-8; N-terminus assumed; SMILES CC[C@H](C)[C@H](NC(=O)[C@@H]1CCCN1C(=O)CNC(=O)[C@H](Cc1ccccc1)NC(=O)[C@H](CC(N)=O)NC(=O)[C@H](CC(N)=O)NC(=O)[C@H](CO)NC(=O)[C@H](CO)NC(=O)[C@H](Cc1c[nH]cn1)NC(=O)C(C)(C)NC(=O)[C@H](CC(C)C)NC(=O)[C@H](Cc1ccccc1)NC(=O)[C@H](CC(N)=O)NC(=O)[C@H](C)NC(=O)[C@H](CC(C)C)NC(=O)[C@H](CCCNC(=N)N)NC(=O)[C@H](CCC(N)=O)NC(=O)[C@@H](NC(=O)[C@H](C)NC(=O)[C@@H]1CSSC[C@H](NC(=O)[C@H](CCCCN)NC(=O)[C@@H](N)CCCCNC(=O)CC[C@H](NC(=O)CCCCCCCCCCCCCCCCC(=O)O)C(=O)O)C(=O)N[C@@H](CC(N)=O)C(=O)N[C@@H]([C@@H](C)O)C(=O)N[C@@H](C)C(=O)N[C@@H]([C@@H](C)O)C(=O)N1)[C@@H](C)O)C(=O)N[C@@H](CC(C)C)C(=O)N1CCC[C@H]1C(=O)N1CCC[C@H]1C(=O)N[C@H](C(=O)N[C@@H](CC(N)=O)C(=O)N[C@H](C(=O)NCC(=O)N1CCC[C@H]1C(=O)N[C@@H](CC(N)=O)C(=O)N[C@H](C(=O)N[C@@H](Cc1ccc(O)cc1)C(N)=O)[C@@H](C)O)C(C)C)[C@@H](C)O) [Peptide 148 (SEQ ID NO: 148)]
